According to paper PMC2756588:

T1: Abp1, P15891
T1 sequence (P15891 535-592, looked up): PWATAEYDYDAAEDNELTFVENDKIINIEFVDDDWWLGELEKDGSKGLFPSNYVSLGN

T2: Bbc1, P47068
T2 sequence (P47068 1-78, looked up): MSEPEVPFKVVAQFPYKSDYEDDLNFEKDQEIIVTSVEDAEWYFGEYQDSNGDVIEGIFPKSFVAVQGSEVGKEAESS

T3: Boi1, P38041
T3 sequence (P38041 1-86, looked up): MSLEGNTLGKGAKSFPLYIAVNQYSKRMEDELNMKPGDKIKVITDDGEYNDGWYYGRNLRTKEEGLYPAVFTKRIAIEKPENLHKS

T4: Boi2, P39969
T4 sequence (P39969 32-116, looked up): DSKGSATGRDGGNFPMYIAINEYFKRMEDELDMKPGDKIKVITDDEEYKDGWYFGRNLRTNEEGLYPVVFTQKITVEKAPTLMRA

T5: Bud14, P27637
T5 sequence (P27637 247-328, looked up): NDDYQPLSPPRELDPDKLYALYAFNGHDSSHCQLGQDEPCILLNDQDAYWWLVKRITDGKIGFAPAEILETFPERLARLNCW

T6: Bzz1-1, P38822
T6 sequence (P38822 478-572, looked up): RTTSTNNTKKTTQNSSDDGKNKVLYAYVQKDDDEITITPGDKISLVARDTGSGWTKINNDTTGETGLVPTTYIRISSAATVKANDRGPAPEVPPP

T7: Bzz1-2, P38822
T7 sequence (P38822 568-633, looked up): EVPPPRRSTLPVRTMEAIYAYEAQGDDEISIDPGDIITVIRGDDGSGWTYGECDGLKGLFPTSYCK

T8: Cdc25, P04821
T8 sequence (P04821 50-136, looked up): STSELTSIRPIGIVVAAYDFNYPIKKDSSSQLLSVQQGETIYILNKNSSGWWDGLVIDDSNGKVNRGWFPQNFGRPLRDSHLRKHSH

T9: Cyk3, Q07533
T9 sequence (Q07533 1-83, looked up): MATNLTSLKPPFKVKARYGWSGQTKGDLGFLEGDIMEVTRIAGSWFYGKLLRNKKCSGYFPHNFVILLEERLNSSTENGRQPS

T10: Fus1, P11710
T10 sequence (P11710 432-512, looked up): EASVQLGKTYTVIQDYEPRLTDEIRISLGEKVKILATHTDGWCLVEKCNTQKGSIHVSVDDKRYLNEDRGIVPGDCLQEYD

T11: Hof1, Q05080
T11 sequence (Q05080 590-669, looked up): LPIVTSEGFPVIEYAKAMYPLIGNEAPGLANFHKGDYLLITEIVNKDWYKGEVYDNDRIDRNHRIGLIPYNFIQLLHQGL

T12: Hse1, P38753
T12 sequence (P38753 208-285, looked up): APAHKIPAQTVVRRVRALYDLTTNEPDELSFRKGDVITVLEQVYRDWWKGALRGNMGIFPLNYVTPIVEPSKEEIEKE

T13: Lsb1, P53281
T13 sequence (P53281 45-122, looked up): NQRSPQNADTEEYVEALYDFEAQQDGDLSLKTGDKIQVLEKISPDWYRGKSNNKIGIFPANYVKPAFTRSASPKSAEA

T14: Lsb3, P43603
T14 sequence (P43603 385-451, looked up): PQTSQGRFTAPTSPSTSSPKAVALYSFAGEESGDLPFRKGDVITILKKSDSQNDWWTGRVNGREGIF

T15: Lsb4, P32793
T15 sequence (P32793 402-468, looked up): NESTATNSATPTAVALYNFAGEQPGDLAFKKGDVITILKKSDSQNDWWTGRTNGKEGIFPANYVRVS

T16: Myo5, Q04439
T16 sequence (Q04439 1072-1160, looked up): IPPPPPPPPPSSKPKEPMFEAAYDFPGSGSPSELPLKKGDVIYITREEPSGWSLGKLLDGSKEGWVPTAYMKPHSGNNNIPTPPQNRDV

T17: Nbp2, Q12163
T17 sequence (Q12163 103-180, looked up): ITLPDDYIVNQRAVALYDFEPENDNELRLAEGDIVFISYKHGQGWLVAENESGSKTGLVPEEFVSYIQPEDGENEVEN

T18: Pex13, P80667
T18 sequence (P80667 295-386, looked up): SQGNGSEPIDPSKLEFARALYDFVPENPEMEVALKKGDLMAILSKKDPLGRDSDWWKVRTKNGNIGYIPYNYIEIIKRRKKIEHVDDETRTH

T19: Pin3, Q06449
T19 sequence (Q06449 53-122, looked up): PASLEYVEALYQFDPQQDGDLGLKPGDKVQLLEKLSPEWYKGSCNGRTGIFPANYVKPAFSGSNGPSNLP

T20: Sla1-2, P32790
T20 sequence (P32790 60-140, looked up): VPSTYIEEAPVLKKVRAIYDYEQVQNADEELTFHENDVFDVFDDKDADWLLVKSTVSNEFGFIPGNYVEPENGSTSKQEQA

T21: Sla1-3, P32790
T21 sequence (P32790 344-424, looked up): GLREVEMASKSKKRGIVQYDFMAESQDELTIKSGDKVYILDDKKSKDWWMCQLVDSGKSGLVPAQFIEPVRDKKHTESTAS

B1: unnamed (peptide)
chain: VPKEPAPAPPPEPDM
B2: unnamed (peptide)
chain: HAPPLPPTAPPPPSL
B3: unnamed (peptide)
chain: PPIPIVPSSPAPPLP
B4: unnamed (peptide)
chain: MPAPPPPPPPPPGAF

target: T1, Abp1, P15891; experiment: SPOT array; conditions: median of control spots 935

Binder | SPOT intensity
B1 | 0
B2 | 0
B3 | 0
B4 | 0

target: T2, Bbc1, P47068; experiment: SPOT array; conditions: median of control spots 796

Binder | SPOT intensity
B1 | 0
B2 | 0
B3 | 0
B4 | 0

target: Bem1-1, P29366; experiment: SPOT array; conditions: median of control spots 4282
Sequence (P29366 55-141): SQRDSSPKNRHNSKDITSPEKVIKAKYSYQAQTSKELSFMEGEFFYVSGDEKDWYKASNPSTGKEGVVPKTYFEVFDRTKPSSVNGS

Binder | SPOT intensity
B1 | 0
B2 | 0
B3 | 0
B4 | 0

target: Bem1-2, P29366; experiment: SPOT array; conditions: median of control spots 4347
Sequence (P29366 139-227): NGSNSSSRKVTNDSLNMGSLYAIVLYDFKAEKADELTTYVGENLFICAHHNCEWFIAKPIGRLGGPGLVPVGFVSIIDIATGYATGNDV

Binder | SPOT intensity
B1 | 0
B2 | 0
B3 | 0
B4 | 0

target: T3, Boi1, P38041; experiment: SPOT array; conditions: median of control spots 1162

Binder | SPOT intensity
B1 | 0
B2 | 0
B3 | 0
B4 | 0

target: T4, Boi2, P39969; experiment: SPOT array; conditions: median of control spots 1161

Binder | SPOT intensity
B1 | 0
B2 | 0
B3 | 0
B4 | 0

target: T5, Bud14, P27637; experiment: SPOT array; conditions: median of control spots 956

Binder | SPOT intensity
B1 | 0
B2 | 0
B3 | 0
B4 | 0

target: T6, Bzz1-1, P38822; experiment: SPOT array; conditions: median of control spots 4446

Binder | SPOT intensity
B1 | 0
B2 | 0
B3 | 0
B4 | 0

target: T7, Bzz1-2, P38822; experiment: SPOT array; conditions: median of control spots 4538

Binder | SPOT intensity
B1 | 0
B2 | 0
B3 | 0
B4 | 1

target: T8, Cdc25, P04821; experiment: SPOT array; conditions: median of control spots 969

Binder | SPOT intensity
B1 | 0
B2 | 0
B3 | 0
B4 | 0

target: T9, Cyk3, Q07533; experiment: SPOT array; conditions: median of control spots 1451

Binder | SPOT intensity
B1 | 1
B2 | 0
B3 | 0
B4 | 0

target: T10, Fus1, P11710; experiment: SPOT array; conditions: median of control spots 1200

Binder | SPOT intensity
B1 | 1
B2 | 0
B3 | 0
B4 | 0

target: GST; experiment: SPOT array; conditions: median of control spots 978

Binder | SPOT intensity
B1 | 0
B2 | 0
B3 | 0
B4 | 0

target: T11, Hof1, Q05080; experiment: SPOT array; conditions: median of control spots 4086

Binder | SPOT intensity
B1 | 0
B2 | 11
B3 | 0
B4 | 0

target: T12, Hse1, P38753; experiment: SPOT array; conditions: median of control spots 1727

Binder | SPOT intensity
B1 | 3
B2 | 0
B3 | 0
B4 | 0

target: T13, Lsb1, P53281; experiment: SPOT array; conditions: median of control spots 388

Binder | SPOT intensity
B1 | 0
B2 | 0
B3 | 0
B4 | 0

target: T14, Lsb3, P43603; experiment: SPOT array; conditions: median of control spots 406

Binder | SPOT intensity
B1 | 0
B2 | 0
B3 | 0
B4 | 0

target: T15, Lsb4, P32793; experiment: SPOT array; conditions: median of control spots 397

Binder | SPOT intensity
B1 | 0
B2 | 0
B3 | 0
B4 | 0

target: Myo3, P36006; experiment: SPOT array; conditions: median of control spots 468

Binder | SPOT intensity
B1 | 149
B2 | 465
B3 | 425
B4 | 163

target: T16, Myo5, Q04439; experiment: SPOT array; conditions: median of control spots 471

Binder | SPOT intensity
B1 | 93
B2 | 279
B3 | 318
B4 | 49

target: T17, Nbp2, Q12163; experiment: SPOT array; conditions: median of control spots 357

Binder | SPOT intensity
B1 | 0
B2 | 0
B3 | 0
B4 | 0

target: T18, Pex13, P80667; experiment: SPOT array; conditions: median of control spots 1341

Binder | SPOT intensity
B1 | 4
B2 | 0
B3 | 0
B4 | 0

target: T19, Pin3, Q06449; experiment: SPOT array; conditions: median of control spots 2171

Binder | SPOT intensity
B1 | 17
B2 | 0
B3 | 0
B4 | 1

target: Rvs167, P39743; experiment: SPOT array; conditions: median of control spots 2707
Sequence (P39743 419-482): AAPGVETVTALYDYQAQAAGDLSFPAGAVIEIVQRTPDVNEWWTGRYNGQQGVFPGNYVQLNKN

Binder | SPOT intensity
B1 | 0
B2 | 0
B3 | 0
B4 | 0

target: Sho1, P40073; experiment: SPOT array; conditions: median of control spots 1148
Sequence (P40073 287-367): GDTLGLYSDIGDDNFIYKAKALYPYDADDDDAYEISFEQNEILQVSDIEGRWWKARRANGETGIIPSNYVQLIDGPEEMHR

Binder | SPOT intensity
B1 | 0
B2 | 0
B3 | 0
B4 | 0

target: T20, Sla1-2, P32790; experiment: SPOT array; conditions: median of control spots 712

Binder | SPOT intensity
B1 | 0
B2 | 0
B3 | 0
B4 | 0

target: T21, Sla1-3, P32790; experiment: SPOT array; conditions: median of control spots 5475

Binder | SPOT intensity
B1 | 0
B2 | 0
B3 | 0
B4 | 2
